Assay: yeast display, Sf9 membrane polyspecificity reagent, FACS + sequencing; frameworks hold sequencing errors
Outline: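 Galactose-induced (36–48 hours) yeast carrying a synthetic nanobody display library were exposed to 10% biotinylated, detergent-solubilized Sf9 membrane reagent at 4 °C for 1 hour. FACS followed streptavidin microbead enrichment, using low and high (top ~1%) gates for expression (anti-HA) and reagent binding (streptavidin). Colony PCR, MiSeq 2 × 250 sequencing and CDR-length filtering followed. Labels for polyreactivity reflect the gate of origin.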

Sequence	polyreactivity (PSR sort gate)
QVQLVESGGGIVQAGGSLRLSCADSGITFKYYAMGWYRQAPGKERQWVAAISRSGGSTYYADSVKGRFTISRDNAKNTVYLQMNSLIAEDTAVYYCNAELYSVYLGFGYWGQGTQVTVSS	high polyreactivity
QVQLVESGGGIVQAGGSLRLSCADSGRTFGYYGMGWYRQAPGKERELVASINFSSGSTFYADSVKGRFTISRDNAKNTVYLQMNSLKPEDTAVYYCAGRAKAVRTYAYNYWGQGTQVTVSS	low polyreactivity
QVQLVESGGGIVQAGGSLRLSCADSGSTFRDNAMGLYRQAPGKERELVAAITVIDGTTYYADSVKGRFTISRDNAKNTVYLQMNSLKPEDTAVYYCAADTIWYEYYYWGQGTQVTVSS	low polyreactivity
QVQLVESGGGIVQAGGSLRLSCPASGRIFGPNAMGGYRQAPGKERELVAVISRRGTSTYYADSVKGRFTISRDNAKNTVYLQMNRLKPEDTAVYYCAAGGHYLYDYWGQGTQVTVSS	high polyreactivity
QVQLVESGGGIVQAGGSLRLSSAASGFTFDSNAMGWYRQPPGKERELVAAISASGDSTYYADSVKGRFTISRDNAKNTVYLQMNSLKPEDTAVYYCAADSYYGGWRFDHWGQGTQVTVSS	low polyreactivity
QVQLVESGGGIVQAGGSLRLTCAASGRIFRSYAMGWYRQAPGKERELVATITWSGTSTYADSVKGRFTISRDNAKNTVYLQMNSLKPEDTAVYYCAAVALFPKYRYYSWGQGTQVTVSS	high polyreactivity
QVQLVESGGGIVQAGGSLRLTCAASGRTYTPYAMGWYRQAPGKERELVAAIDTSGGSTYADSVKGRFTISRDNAKNTVYLQMNSLKPEDTAVYYCATRGFYSWDYWYLWEYDYWGQGTQVTVSS	low polyreactivity
QVQLVESGGGIVQAGGSLSLSCAASGFIIPSYTMGWYRQAPGKERDLVAGITQRGGSTYYADSVKGRFTISRDNAKNTVYLQMNSLNPEDTAVYYCARGISRGRSFGIGYDYWGQGTQVTLSS	low polyreactivity
QVQLVESGGGIVQAGGSLSLSCAASGSTFYSYDMVWYRPAPGKERELVAAISWEGGRPYYADSVKGRFTISRDNAKNNVYLQMNSLKPEDTAVYYCADAYPTYRHYYWGQGTQVSVSS	low polyreactivity
QVQLVESGGGIVQAGGSLSLSCRACGRSFAFYSMGWYRQEPGKERELVAAITRTGSTSYADSVNGRFTISRDNAKNTVYLQMNSLKPEDTAVYYCATVGYPYTLWHQMVYWGQGTQVTVSS	low polyreactivity
QVQLVESGGGIVQAGRSLRLSCAASGNTFYLYAMGWYRQAPGKERELVATITSGGRTTYADSVKGRFTISRDNAKNTVYLQMNSLKPEDTAVYYCAARRVQYYGWGGMEYWGQGTQVTVSS	high polyreactivity
QVQLVESGGGIVQAGRSLRLSCAASGRTFYYYVMGWYRQAPGKERELVAAISRGGRTYYADSVKGRFTISRDNAKNTVYLQMNSLKPEDTAVYYCNAVPRKSRHRYDYWGQGSQVTVSS	high polyreactivity
QVQLVESGGGIVQAGVSLRLSCAASGGTLCTYAMGWYRQAPGKERELVASIDSGDSTYYADSVKGRFTISRDNAKNTVYLQMNSLKPEDTAVYYCAAAYFRRYTTTWYGYEYWGQGTQVTVSS	low polyreactivity
QVQLVESGGGIVQARGSLRLSSAASGNIFRINGMGWSRQERGKERELVASITRSGSTYYADSVKGRFTISRDNAKNTVYLQMNILKPEDTAVYYCAADSSSYGVRFDYWGQGTQVTVSS	low polyreactivity
QVQLVESGGGIVQVGRSLPISSAAYGRTFVYYAMGWYRQAPGKERELVARISRSGGRTFYADSVKGRFTISRDNAKNTVYLVLYSQKPEDTAVYYCNSSDVHVTTYGYWGQGTQVSVSS	low polyreactivity
QVQLVESGGGKVQAGGSLRLSCAASGLTFSRYAMGWYRQAPGKERELVAAISGRGASTSYADSVKGRFTISRDNAKNTVYLQMNSLKPEDTAVYYCAAQKYYHSYLNRHYYWGQGTQVTVSS	high polyreactivity
QVQLVESGGGKVQAGGSLRLSCAASGRIFPEYAMGWYRQAPGKERELVAAISSGDNTTYADSVKGRFTISRDNAKNTVYLQMNSLKPEDTAVYYCNAGSGTTGQGGPIIEYGYWGQGTQVTVSS	low polyreactivity
QVQLVESGGGKVQAGGSLRLSCAASGRILHEYAMGWYRQAPGKERELVAAITFSGTSTYYADSVKGRFTISRDNAKNTVYLQMYSLKPEDTAVYYCAADTYGGSRDYWGQGTQVTVSS	low polyreactivity
QVQLVESGGGKVQAGGSLRLSCAASGYTFKYYTMGWYRQAPGKERELLAAITRSGGSTYYADSVKGRFTISRDTAKNTVYLQMNSLKPEDTAFYYCAARASYKQPVSFDYWGQGTQVTVSS	high polyreactivity
QVQLVESGGGLDHAGGSLRLSCAASGRTFLGYAMGWYRQAPGKERELVAAISSSGGSTYYADSVKGLFTISRDNAKNTVYLQTNSLKPEDTAVYYCAKRKPATCASGHRFGYWGQGTQVTVSS	high polyreactivity
QVQLVESGGGLDLAGGSLRLSCASSGLTFFYYAMAWYRQAPGKEMEFVASISRSGGSTYYADSVKGRFTISRDNAKNTVSLQKNSLKPEDTAVYYCAAVERRTPGYGYDYWGQGTQVTVSS	high polyreactivity
QVQLVESGGGLDQAGCSLRLSCAASGRIFYVYDMGWYRQAPGKERELVATITSSGDGTYYADSVKGRFTSSRDNAKNTVYLQMNSLKPEDTAVYYCARRYFVRFVNPPYYYWGHGTQVTVSS	low polyreactivity

Sequence	polyreactivity (PSR sort gate)
QVQLVESGGGLDQAGGRLRLSCAASGRTFVYYAMGWYRQAPGKERELVATITRGGRTNYADSVKGRFTISRDNAKNTVYLQMNSLKPEDTAVYYCNARYSWWRSRVGSSHRPDGYWGQGTQVTVSS	high polyreactivity
QVQLVESGGGLDQAGGRLRLSCAASGRTYSVKSMGWYRQAPGKERELVAAITSGGSTYYADSVKGRFTISRDNAKNTVYLQMNSLKPEDTAVYYCNAVGRLRRSRLRMDYWGQGTQVTVSS	high polyreactivity
QVQLVESGGGLDQAGGRLRLSCAAYGSTFELYAMGWYRQAPGKERELVASITGDSTNYADSVKGRFTISRDNAKNTVYLQMNSLKPEDTAVYYCAAEYVPYYEYESWGQGTQVTVSS	low polyreactivity
QVQLVESGGGLDQAGGSIRLSCAASGGTFKANAMGWYRQAPGKEREVVAAIRQTGGSTYYADSVKGRFTISRDNEKNTVYLQMNSLKPEDTAVYYCAAQSHRYWIYDYWGQCTQVTVSS	high polyreactivity
QVQLVESGGGLDQAGGSLPLSCAASGFTFGHYAMGWYRQAPGKERELVAAISSGDRTYYADSVKGRFTISRDNAKNTVYLQMNSLKPEDTAVYYCAADGIYTYEYWGQGTQVTVSS	low polyreactivity
QVQLVESGGGLDQAGGSLRLICDAYGSTFNWNAMGWYRQAPGKERELVAAISSGGSTNYADSVKGRFTISRDNAKNTVYLQMNSLKPEDTAVYYCARQHSRWYSGYKYNYWGQGTQVTVSS	high polyreactivity
QVQLVESGGGLDQAGGSLRLIFAASGRTFYRYAMGLYRQAPGKERELVAAISVRGGSTYYADSVKGRFTISRDNAKNTVYLQMNSLKPEDTAVYYCDAEYVAPWYIGLEVTRLIYWGQGTQVTVSS	high polyreactivity
QVQLVESGGGLDQAGGSLRLISAASGLTLRRYAMGWYRQAPGKERELVASINTGTSTKYADSVKGRFTISRDNAKNTDYLQLNSLKPEDTAFYYCAARPAAQGYGYWGQGTQVTVSS	high polyreactivity
QVQLVESGGGLDQAGGSLRLSCAASGFIFGVSVMGWYRPAPGKERELVAAMSGRGGSTFYADSVKGRFTISRDNAKNTVYLQMNSLKPEDTAVYYCAAKSTGPSMDYWGQGTQVTVSS	high polyreactivity
QVQLVESGGGLDQAGGSLRLSCAASGFIFQRYTLGWYRQAPGKERELVAAITSGGRTYYADSVKGRFTISRDNAKNTVYLQMNSLKPEDTAVYYCNARGRASRHSGYDYWGQGTQVTVSS	high polyreactivity
QVQLVESGGGLDQAGGSLRLSCAASGFIFRYYAMGWYRQAPGKERELVAAISRNGGSTYYADSVKGRFTISRDIAKNTVYLQMNSLKPEDTAVYYCAALTGRERYDYWGQGTQVTVSS	high polyreactivity
QVQLVESGGGLDQAGGSLRLSCAASGFIFVRNAMGWYRQPPGKERELVAAITRSGGSTSYADSVKGRFTISRDNAKNTVYLQMNSLKPEDTAVYYCASERYPWQLYWSYYGYYYWGQGTQVTVSS	high polyreactivity
QVQLVESGGGLDQAGGSLRLSCAASGFTFAVYAMGWYRQAPAKERELVAAISRSGTRTYYADSVKGRFTISRDNAKNTVYLQMNSLKREDNAVYYCAADNYRHGYEYWGLGTQVTVSS	high polyreactivity
QVQLVESGGGLDQAGGSLRLSCAASGFTFPGNAMGWYRQSPGKEREFVAGISRSGDSTYYADSVKGRFTISRDNAKNTVYLQMNSLKPEDTAVYYCAARNPYRYFYYYEYWGQGTQVTVSS	low polyreactivity
QVQLVESGGGLDQAGGSLRLSCAASGFTFRHNTMGGYRQAPGKEREMVAAISIGGRTYYADSVKGRFTISRDNAKNTVYLQMNSLKPEDTAVYYCAKLSRGQSPGYDYWGQGTQVTVSS	high polyreactivity
QVQLVESGGGLDQAGGSLRLSCAASGFTFSYNAMGWYRQAPGKERELVASISWRGGGTYYADSVKGRFTISRDNAKNTVYLQMNSLKPEDTAVYYCNAGLTDYIGDPSEVDYWGQGTQVTVSS	low polyreactivity
QVQLVESGGGLDQAGGSLRLSCAASGGILVIYAMGWYRQEPGKERELVAAINVSGGSTYYADSVKGRFTISRDNAKNTVYLQMNSLKPEDTAVYYCAALGPYLDYGVQYGYWGQGTQVTVSS	low polyreactivity
QVQLVESGGGLDQAGGSLRLSCAASGGTFARYAMGWYRQAPGKERELVAAISARGGSTYYADSVKGRFTISRDNAKNTVYLQMNSLKPEDTAVYYCAAKKWYDRYGFDYWGQGTQVTVSS	high polyreactivity
QVQLVESGGGLDQAGGSLRLSCAASGGTFGLYAMGWYRQAPGKERELVAAITWSDSSTYYADSVKGRFTISRDNAKNTVYFQMNSLKPEDTAVYYCNAVRSTSYGSYNYWGQGTQVTVSS	low polyreactivity
QVQLVESGGGLDQAGGSLRLSCAASGGTFYYYAMGWYRQPPGKERELVAAITKNGGSTYYADSVKGRFTNSRDNAKNTVYLQMNRLKPEDTAVYSCAKATVAYGWWRYNYWGQGTQVTVSS	high polyreactivity
QVQLVESGGGLDQAGGSLRLSCAASGITFGRNTMGWYRQAPGQERELVAAIDSGGNTYADSVKGRFTISRDNAKNTVYLQMNCLKPEDTAVYYCAVDGGEFSSYGYWGQGTQVTVSS	low polyreactivity

Reference: the nanobody polyreactivity screen of Harvey et al. (2022)
